Experimental data as given in patent US20250281611A1 (BIOSCEPTRE AUST, published 2025).

Legend:
[1] = target: T1, nfP2X7 CAR 1; test: flow cytometry, nfP2X7 CAR T cells (EGFR+), anti-His-FITC detection
T1 construct: Expressed on T cells with truncated EGFR as marker gene; also called anti-nfP2X7 receptor CAR 1; nfP2X7 targeted CAR on EGFR+ T cells
Protocol: (§1) nfP2X₇ CAR T cells were incubated with different BRiDGE variants at saturating concentrations. […] The MFI intensity correlates with the number of secondary bound antibodies bound to the BRiDGEs that are only detected if they are bound to the CAR T cells. EGFR was used as a marker gene to detect the CAR expression. Thus, the EGFR+ T cell population was defined as the CAR expressing cells and the EGFR− T cell population was defined as the CAR negative subset. MFI: median fluorescence intensity. EGFR: epidermal growth factor receptor. BLItz: Bio-Layer interferometry (BLI) technology using HIS-tag identification tips. HIS-tag MFI Ratio: relative index that is calculated by the testing condition MFI divided by the control MFI, which corresponds to the MFI measured on EGFR+ T cells (defined as CAR positive cells) divided by the MFI measured on the EGFR− T cells (defined as CAR negative cells). […] The higher the MFIR, the stronger the binding.

[2] = target: T2, CD33 (UniProt P20138 18-364, limits assumed); test: flow cytometry, MOLM-13 cells, anti-His-FITC detection
T2 construct: whole, on cells; also called Siglec-3; CD33 on MOLM-13 cells
T2 sequence (P20138 18-364 limits assumed): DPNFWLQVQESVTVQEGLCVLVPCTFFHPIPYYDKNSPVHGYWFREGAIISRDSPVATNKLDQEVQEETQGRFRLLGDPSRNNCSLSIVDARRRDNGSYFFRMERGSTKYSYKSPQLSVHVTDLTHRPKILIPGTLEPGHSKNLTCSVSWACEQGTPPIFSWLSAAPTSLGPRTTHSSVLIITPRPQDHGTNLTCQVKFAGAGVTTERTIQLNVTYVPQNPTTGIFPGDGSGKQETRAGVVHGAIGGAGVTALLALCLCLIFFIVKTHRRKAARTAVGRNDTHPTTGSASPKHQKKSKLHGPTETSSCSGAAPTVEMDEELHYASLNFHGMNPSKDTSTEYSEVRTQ
Protocol: (§2) MOLM-13 cells were incubated with different CD33 BRIDGE variants at saturating concentrations. […] The MFI intensity correlates with the number of secondary antibodies bound to the CD33 BRIDGE variants that are only detected if they are bound to the MOLM-13 cells. MFI: median fluorescence intensity. BLItz: Bio-Layer interferometry (BLI) technology using HIS-tag identification tips. […] The higher the MFIR, the stronger the binding.

[3] = target: T1, nfP2X7 CAR 1; test: flow cytometry, CAR T cells, anti-His-FITC, EGFR+ over EGFR- cells
Protocol: as §1

[4] = target: T1, nfP2X7 CAR 1; test: flow cytometry, CAR T cells, anti-His-FITC, EGFR+ MFI over background 0.4
Protocol: as §1

[5] = target: T2, CD33; test: flow cytometry, MOLM-13 cells, anti-His-FITC detection, ratio to no bridge
Protocol: as §2

Row | Binder | MFI HisTag FITC in EGFR+ Population [1] | MFI HisTag FITC [2] | HisTag MFI Ratio of EGFR+/EGFR- [3] | HisTag MFI Ratio (background 0.4) [4] | MFIR HisTag FITC [5]
1 | CD33 BRIDGE variant B21 (Fab, Lintuzumab-based Fab bridging molecule) light: DFPGHNYTTRNILPGLNITSGGGGSEPKSSDKTHTDIQMTQSPSSLSASVGDRVTITCRASESVDNYGISFMNWFQQKPGKAPKLLIYAASNQGSGVPSRFSGSGSGTDFTLTISSLQPDDFATYYCQQSKEVPWTFGQGTKVEIKRTVAAPSVFIFPPSDEQLKSGTASVVCLLNNFYPREAKVQWKVDNALQSGNSQESVTEQDSKDSTYSLSSTLTLSKADYEKHKVYACEVTHQGLSSPVTKSFNRGECHHHHHH heavy: QVQLVQSGAEVKKPGSSVKVSCKASGYTFTDYNMHWVRQAPGQGLEWIGYIYPYNGGTGYNQKFKSKATITADESTNTAYMELSSLRSEDTAVYYCARGRPAMDYWGQGTLVTVSSASTKGPSVFPLAPSSKSTSGGTAALGCLVKDYFPEPVTVSWNSGALTSGVHTFPAVLQSSGLYSLSSVVTVPSSSLGTQTYICNVNHKPSNTKVDKKVEPKSCHHHHHH | 1.14 | 6.04 | 2.8 | 2.9 | 9.01
2 | CD33 BRIDGE variant B24 (Fab, Lintuzumab-based Fab bridging molecule) light: DFPGHNYTTRNILPGLNITSTFHKTSGSGKGGGGSEPKSSDKTHTDIQMTQSPSSLSASVGDRVTITCRASESVDNYGISFMNWFQQKPGKAPKLLIYAASNQGSGVPSRFSGSGSGTDFTLTISSLQPDDFATYYCQQSKEVPWTFGQGTKVEIKRTVAAPSVFIFPPSDEQLKSGTASVVCLLNNFYPREAKVQWKVDNALQSGNSQESVTEQDSKDSTYSLSSTLTLSKADYEKHKVYACEVTHQGLSSPVTKSFNRGECHHHHHH heavy: QVQLVQSGAEVKKPGSSVKVSCKASGYTFTDYNMHWVRQAPGQGLEWIGYIYPYNGGTGYNQKFKSKATITADESTNTAYMELSSLRSEDTAVYYCARGRPAMDYWGQGTLVTVSSASTKGPSVFPLAPSSKSTSGGTAALGCLVKDYFPEPVTVSWNSGALTSGVHTFPAVLQSSGLYSLSSVVTVPSSSLGTQTYICNVNHKPSNTKVDKKVEPKSCHHHHHH | 1.82 | 6.25 | 3.5 | 4.6 | 9.33
3 | CD33 BRIDGE variant B23 (Fab, Lintuzumab-based Fab bridging molecule) light: DFPGHNYTTRNILPGLNITSTFHKTSGSGKGSEPKSSDKTHTDIQMTQSPSSLSASVGDRVTITCRASESVDNYGISFMNWFQQKPGKAPKLLIYAASNQGSGVPSRFSGSGSGTDFTLTISSLQPDDFATYYCQQSKEVPWTFGQGTKVEIKRTVAAPSVFIFPPSDEQLKSGTASVVCLLNNFYPREAKVQWKVDNALQSGNSQESVTEQDSKDSTYSLSSTLTLSKADYEKHKVYACEVTHQGLSSPVTKSFNRGECHHHHHH heavy: QVQLVQSGAEVKKPGSSVKVSCKASGYTFTDYNMHWVRQAPGQGLEWIGYIYPYNGGTGYNQKFKSKATITADESTNTAYMELSSLRSEDTAVYYCARGRPAMDYWGQGTLVTVSSASTKGPSVFPLAPSSKSTSGGTAALGCLVKDYFPEPVTVSWNSGALTSGVHTFPAVLQSSGLYSLSSVVTVPSSSLGTQTYICNVNHKPSNTKVDKKVEPKSCHHHHHH | 1.71 | 6.82 | 3.4 | 4.3 | 10.2
4 | CD33 BRIDGE variant B22 (Fab, Lintuzumab-based Fab bridging molecule) light: DFPGHNYTTRNILPGLNITSTFHKTSGSGKEPKSSDKTHTDIQMTQSPSSLSASVGDRVTITCRASESVDNYGISFMNWFQQKPGKAPKLLIYAASNQGSGVPSRFSGSGSGTDFTLTISSLQPDDFATYYCQQSKEVPWTFGQGTKVEIKRTVAAPSVFIFPPSDEQLKSGTASVVCLLNNFYPREAKVQWKVDNALQSGNSQESVTEQDSKDSTYSLSSTLTLSKADYEKHKVYACEVTHQGLSSPVTKSFNRGECHHHHHH heavy: QVQLVQSGAEVKKPGSSVKVSCKASGYTFTDYNMHWVRQAPGQGLEWIGYIYPYNGGTGYNQKFKSKATITADESTNTAYMELSSLRSEDTAVYYCARGRPAMDYWGQGTLVTVSSASTKGPSVFPLAPSSKSTSGGTAALGCLVKDYFPEPVTVSWNSGALTSGVHTFPAVLQSSGLYSLSSVVTVPSSSLGTQTYICNVNHKPSNTKVDKKVEPKSCHHHHHH | 1.44 | 4.61 | 3.1 | 3.6 | 6.88
5 | CD33 BRIDGE variant B25 (Fab, V domains shown, Lintuzumab-based Fab bridging molecule) VH: QVQLVQSGAEVKKPGSSVKVSCKASGYTFTDYNMHWVRQAPGQGLEWIGYIYPYNGGTGYNQKFKSKATITADESTNTAYMELSSLRSEDTAVYYCARGRPAMDYWGQGTLVTVSS VL: DIQMTQSPSSLSASVGDRVTITCRASESVDNYGISFMNWFQQKPGKAPKLLIYAASNQGSGVPSRFSGSGSGTDFTLTISSLQPDDFATYYCQQSKEVPWTFGQGTKVEIKR | 1.82 | 7.29 | 3.4 | 4.6 | 10.9

Second part, the binder after the results:

Row | MFI HisTag FITC in EGFR+ Population [1] | MFI HisTag FITC [2] | HisTag MFI Ratio of EGFR+/EGFR- [3] | HisTag MFI Ratio (background 0.4) [4] | MFIR HisTag FITC [5] | Binder
6 | 1.2 | 5.55 | 2.8 | 3 | 8.28 | CD33 BRIDGE variant B27 (Fab, Lintuzumab-based Fab bridging molecule) light: DFPGHNYTTRNILPGLNITSGGGGSEPKSSDKTHTGSDIQMTQSPSSLSASVGDRVTITCRASESVDNYGISFMNWFQQKPGKAPKLLIYAASNQGSGVPSRFSGSGSGTDFTLTISSLQPDDFATYYCQQSKEVPWTFGQGTKVEIKRTVAAPSVFIFPPSDEQLKSGTASVVCLLNNFYPREAKVQWKVDNALQSGNSQESVTEQDSKDSTYSLSSTLTLSKADYEKHKVYACEVTHQGLSSPVTKSFNRGECHHHHHH heavy: QVQLVQSGAEVKKPGSSVKVSCKASGYTFTDYNMHWVRQAPGQGLEWIGYIYPYNGGTGYNQKFKSKATITADESTNTAYMELSSLRSEDTAVYYCARGRPAMDYWGQGTLVTVSSASTKGPSVFPLAPSSKSTSGGTAALGCLVKDYFPEPVTVSWNSGALTSGVHTFPAVLQSSGLYSLSSVVTVPSSSLGTQTYICNVNHKPSNTKVDKKVEPKSCHHHHHH
7 | 1.58 | 6.33 | 3.2 | 4 | 9.45 | CD33 BRIDGE variant B28 (Fab, Lintuzumab-based Fab bridging molecule) light: DFPGHNYTTRNILPGLNITSTFHKTSGSGKEPKSSDKTHTGSDIQMTQSPSSLSASVGDRVTITCRASESVDNYGISFMNWFQQKPGKAPKLLIYAASNQGSGVPSRFSGSGSGTDFTLTISSLQPDDFATYYCQQSKEVPWTFGQGTKVEIKRTVAAPSVFIFPPSDEQLKSGTASVVCLLNNFYPREAKVQWKVDNALQSGNSQESVTEQDSKDSTYSLSSTLTLSKADYEKHKVYACEVTHQGLSSPVTKSFNRGECHHHHHH heavy: QVQLVQSGAEVKKPGSSVKVSCKASGYTFTDYNMHWVRQAPGQGLEWIGYIYPYNGGTGYNQKFKSKATITADESTNTAYMELSSLRSEDTAVYYCARGRPAMDYWGQGTLVTVSSASTKGPSVFPLAPSSKSTSGGTAALGCLVKDYFPEPVTVSWNSGALTSGVHTFPAVLQSSGLYSLSSVVTVPSSSLGTQTYICNVNHKPSNTKVDKKVEPKSCHHHHHH
8 | 1.22 | 5.75 | 2.8 | 3.1 | 8.58 | CD33 BRIDGE variant B26 (Fab, V domains shown, Lintuzumab-based Fab bridging molecule) VH: QVQLVQSGAEVKKPGSSVKVSCKASGYTFTDYNMHWVRQAPGQGLEWIGYIYPYNGGTGYNQKFKSKATITADESTNTAYMELSSLRSEDTAVYYCARGRPAMDYWGQGTLVTVSS VL: DIQMTQSPSSLSASVGDRVTITCRASESVDNYGISFMNWFQQKPGKAPKLLIYAASNQGSGVPSRFSGSGSGTDFTLTISSLQPDDFATYYCQQSKEVPWTFGQGTKVEIKR
